Reference: US20150175665A1 (IPSEN PHARMA S A S, published 2015)

target: T1, human recombinant GIP receptor (human, UniProt P48546 22-466); test: displacement of [125I]GIP, membranes of CHO-K1 cells expressing human GIP receptor
T1 construct: whole, on cells; Assayed as washed membranes of CHO-K1 cells expressing the receptor; also called hGIP receptor
T1 sequence (looked up): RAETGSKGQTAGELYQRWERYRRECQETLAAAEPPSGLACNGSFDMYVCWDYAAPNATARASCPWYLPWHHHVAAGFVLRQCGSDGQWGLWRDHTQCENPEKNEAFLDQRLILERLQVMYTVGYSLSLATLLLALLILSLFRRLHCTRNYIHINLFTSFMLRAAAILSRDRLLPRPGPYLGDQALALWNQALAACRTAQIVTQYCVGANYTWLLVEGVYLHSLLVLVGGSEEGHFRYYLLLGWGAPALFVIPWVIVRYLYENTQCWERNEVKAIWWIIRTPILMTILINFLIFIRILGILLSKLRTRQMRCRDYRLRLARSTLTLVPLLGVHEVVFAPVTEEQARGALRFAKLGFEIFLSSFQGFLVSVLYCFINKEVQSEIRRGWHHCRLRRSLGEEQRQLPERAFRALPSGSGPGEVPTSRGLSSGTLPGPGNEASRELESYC
Experimental: Membranes for in vitro receptor binding assays were prepared by homogenizing the CHO—K1 clonal cells expressing the human recombinant GIP receptor, with a Brinkman Polytron (setting 6, 15 sec), in ice-cold 50 mM Tris-HCl and then subjected to two centrifugations at 39,000 g for 10 minutes, with a resuspension in fresh buffer in between. For the assay, aliquots of the washed membrane preparations were incubated (100 minutes at 25° C. with 0.05 nM [¹²⁵1]GIP (2200 Ci/mmol) in 50 mM Tris-HCl, 0.1 mg/ml bacitracin, and 0.1% BSA. The final assay volume was 0.5 ml. The incubations were terminated by rapid filtration through GF/C filters (pre-soaked in 0.5% polyethylenimine) using a Brandel filtration manifold. Each tube and filter were then washed three times with 5-ml aliquots of ice-cold buffer.
Specific binding was defined as the total radioligand bound minus that bound in the presence of 1000 nM GIP.

Binder | Ki [nM]
YXEGTFISDYXIAMDKIHQQDFVNWLLAQKGKKNDWKHNIXQ (2,6Me-Tyr at 1; Aib at 2; A5c at 11 and 41) [(2,6Me-Tyr^1, Aib^2, A5c^11, 41)hGIP(1-42)-OH] | 1.03
YXEGTFISDYXIAMDKIHQQDFVNWLLAQKGKKNDWKHNIXQ (Tyr(Me) at 1; Aib at 2; A5c at 11 and 41) [[Tyr(Me)^1, Aib^2, A5c^11, 41]hGIP(1-42)-OH] | 4.5
XXEGTFISDYXIAMDKIHQQDFVNWLLAQKGKKNDWKHNIXQ (4-Pal at 1; Aib at 2; A5c at 11 and 41) [(4-Pal^1, Aib^2, A5c^11, 41)hGIP(1-42)-OH] | 8.14
XXEGTFISDYXIAMDKIHQQDFVNWLLAQKGKKNDWKHNIXQ (3-Pal at 1; Aib at 2; A5c at 11 and 41) [(3-Pal^1, Aib^2, A5c^11, 41)hGIP(1-42)-OH] | 9.75
XXEGTFISDYXIAMDKIHQQDFVNWLLAQKGKKNDWKHNIXQ (Taz at 1; Aib at 2; A5c at 11 and 41) [(Taz^1, Aib^2, A5c^11, 41)hGIP(1-42)-OH] | 3.28
YXEGTFISDYXIAMDKIHQQDFVNWLLAQKGKKNDWKHNIXQ (3NO2-Tyr at 1; Aib at 2; A5c at 11 and 41) [(3NO2-Tyr^1, Aib^2, A5c^11, 41)hGIP(1-42)-OH] | 11.2
XXEGTFISDYXIAMDKIHQQDFVNWLLAQKGKKNDWKHNIXQ (3Thi at 1; Aib at 2; A5c at 11 and 41) [(3Thi^1, Aib^2, A5c^11, 41)hGIP(1-42)-OH] | 7.05
YGEGTFISDYXIAMDKIHQQDFVNWLLAQKGKKNDWKHNXTQ (3F-Tyr at 1; A5c at 11 and 40) [(3F-Tyr^1, Gly^2, A5c^11, 40)hGIP(1-42)-OH] | 10.4
XXEGTFXSDYSIAMDKIHQQDFVNWLLAQK (4Hppa at 1; Aib at 2; A5c at 7; C-terminal amide) [(4Hppa^1, Aib^2, A5c^7)hGIP(1-30)-NH2] | 5
YGEGTFISDYXIAMDKIHQQDFVNWLLAQKGKKNDWKHNIXQ (pseudopeptide bond Ψ-(CH2-NH) between Tyr 1 and Gly 2; A5c at 11 and 41) [[Tyr^1-Ψ-(CH2-NH)Gly^2, A5c^11, 41]hGIP(1-42)-OH] | 49
FXEGTFISDYXIAMDKIHQQDFVNWLLAQKGKKNDWKHNITQH (4Me-Phe at 1; Aib at 2; A5c at 11) [(4Me-Phe^1, Aib^2, A5c^11, His^43)hGIP(1-43)-OH] | 9.13
YXEGTFISDYXIAMDKIHQQDFVNWLLAQKGKKNDWKHNITQH (2,6Me-Tyr at 1; Aib at 2; A5c at 11) [(2,6Me-Tyr^1, Aib^2, A5c^11, His^43)hGIP(1-43)-OH] | 35
YXEGTFISDYXIAXDKIHQQDFVNWLLAQKGKKNDWKHNITQH (2,6Me-Tyr at 1; Aib at 2; A5c at 11 and 14) [(2,6Me-Tyr^1, Aib^2, A5c^11, 14, His^43)hGIP(1-43)-OH] | 50.2
YXEGTFISDYXIAXDKIHQQDFVNWLLAQKGKKNDWKHNITQC (3Cl-Tyr at 1; Aib at 2; A5c at 11; Nle at 14) [(3Cl-Tyr^1, Aib^2, A5c^11, Nle^14, Cys^43)hGIP(1-43)-OH] | 0.83
YXEGTFISDYXIAXDKIHQQDFVNWLLAQKGKKNDWKHNITQC (3Cl-Tyr at 1; Aib at 2; A5c at 11; Nle at 14; Cys(succinimide-N-(CH2)2-C(O)NH-(CH2)3-O-CH2-CH(20K PEG)-CH2-20K PEG) at 43; C-terminal amide, Branched PEGylated analogue) | 42.4
YXEGTFISDYXIAXDKIHQQDFVNWLLAQKGKKNDWKHNITQH (2,6Me-Tyr at 1; Aib at 2; A5c at 11; Nle at 14) [(2,6Me-Tyr^1, Aib^2, A5c^11, Nle^14, His^43)hGIP(1-43)-OH] | 39
YAEGTFISDYXIAXDKIHQQDFVNWLLAQKGKKNDWKHNITQH (3Cl-Tyr at 1; D-Ala at 2; A5c at 11; Nle at 14, X stands for a non-natural residue) [(3Cl-Tyr^1, D-Ala^2, A5c^11, Nle^14, His^43)hGIP(1-43)-OH] | 8.89
YAEGTFISDYXIAXDKIHQQDFVNWLLAQKGKKNDWKHNITQC (3Cl-Tyr at 1; D-Ala at 2; A5c at 11 and 14; Cys(succinimide) at 43, X stands for a non-natural residue) [[3Cl-Tyr^1, D-Ala^2, A5c^11, 14, Cys^43(succinimide)]hGIP(1-43)-OH] | 1.41
YAEGTFISDYXIAXDKIHQQDFVNWLLAQKGKKNDWKHNITQK (3Cl-Tyr at 1; D-Ala at 2; A5c at 11 and 14; Lys(N-C(O)-(CH2)10-CH3) at 43, X stands for a non-natural residue) [[3Cl-Tyr^1, D-Ala^2, A5c^11, 14, Lys^43(N-C(O)-(CH2)10-CH3)]hGIP(1-43)-OH] | 9.06
YAEGTFISDYXIAXDKIHQQDFVNWLLAQKGKKNDWKHNITQC (3Cl-Tyr at 1; D-Ala at 2; A5c at 11; Nle at 14; Cys(succinimide) at 43, X stands for a non-natural residue) [[3Cl-Tyr^1, D-Ala^2, A5c^11, Nle^14, Cys^43(succinimide)]hGIP(1-43)-OH] | 9.13
YAEGTFISDYXIAXDKIHQQDFVNWLLAQKGKKNDWKHNITQK (3Cl-Tyr at 1; D-Ala at 2; A5c at 11; Nle at 14; Lys(N-C(O)-(CH2)10-CH3) at 43, X stands for a non-natural residue) [[3Cl-Tyr^1, D-Ala^2, A5c^11, Nle^14, Lys^43(N-C(O)-(CH2)10-CH3)]hGIP(1-43)-OH] | 6.64
YAEGTFISDYXIAXDKIHQQDFVNWLLAQKGKKNDWKHNITQH (3Cl-Tyr at 1; D-Ala at 2; A5c at 11 and 14, X stands for a non-natural residue) [(3Cl-Tyr^1, D-Ala^2, A5c^11, 14, His^43)hGIP(1-43)-OH] | 5.06
YXEGTFISDYXIAXDKIHQQDFVNWLLAQKGKKNDWKHNITQH (3Cl-Tyr at 1; Aib at 2; A5c at 11 and 14) [(3Cl-Tyr^1, Aib^2, A5c^11, 14, His^43)hGIP(1-43)-OH] | 0.78
YXEGTFISDYXIAXDKIHQQDFVNWLLAQKGKKNDWKHNITQH (3Cl-Tyr at 1; Aib at 2; A5c at 11; Nle at 14) [(3Cl-Tyr^1, Aib^2, A5c^11, Nle^14, His^43)hGIP(1-43)-OH] | 0.76
YXEGTFISDYXIAXDKIHQQDFVNWLLAQKGKKNDWKHNITQH (3Br-Tyr at 1; Aib at 2; A5c at 11; Nle at 14) [(3Br-Tyr^1, Aib^2, A5c^11, Nle^14, His^43)hGIP(1-43)-OH] | 1.09
